Laboratory results published in patent US20210396736A1, “SCREENING ASSAY” (The University of Bath, priority 2018, published 2021).

B1: Acidic FosW: library-derived peptide able to dissociate the cJun bZIP protein from the TRE sites in TRE mDHFR (peptide)
peptide: MASLEQRAEELARENEELEKEAEELEQELDELQAEIEQLEERNYALRKEIEDLQKQLEKLGAP

Experiments:
cJun bZIP = target: T1, cJun bZIP (Homo sapiens, UniProt P05412, S292Y); experiment: Further TBS assay experiment, Example 3 (colony count, FIG. 3); assay type: cell-based; details: for rescue of DHFR expression / change in number of colonies compared to plate 2: co-expressed with TRE mDHFR and cJun bZIP
T1 construct: cJun with the basic region and leucine zipper (cJun bZip); expressed in transfected cells
Source text: This experiment used similar plasmids to those set out in Example 1, with the exception that pET24a was used to express both the lac repressor and test compound using a single plasmid. Specifically, three plasmids were used: i) p300d expressing the mDHFR gene modified to include 15 TREs (TRE mDHFR, generated as described in Example 1); ii) p230d expressing either the leucine zipper part of cJun (cJun LZ) or cJun with the basic region and leucine zipper (cJun bZip); iii) pET24a expressing the lac repressor and either the leucine zipper part of cFos (cFos LZ) or the acidic FosW peptide (acidic FosW).
Plates were generated as set out in the following table:
The number of colonies produced in each plate were counted and this quantification is illustrated in FIG. 3.

AP-1 = AP-1 driven luciferase gene reporter assay; assay type: cell-based, mammalian; details: transfected, versus control and dummy vector; FIG. 2
Source text: Wild-type AP-1 proteins have a long stretch of basic amino acids at the N-terminal of the protein which enables DNA binding. Acidic versions of AP-1 proteins can be generated with a long stretch of negatively charged amino acids (in place of the positive) which can serve as a DNA mimic. Acidic AP-1 peptide variants can therefore form heterodimers with wild type AP-1 proteins driven by both the dimerization motif and the negative/positive charge interaction, resulting in their sequestration from the DNA.
In order to test whether the peptides identified as being functional antagonists in the TBS assay are also likely to have the same activity in eukaryotic cells, a AP-1 driven luciferase gene reporter assay was carried out. This assay was carried out using no transfection (control), transfected dummy vector, acidic c-Jun, acidic c-Fos and library-derived peptide treated (FosW).

[1] = co-expressed with TRE mDHFR and cJun bZIP (plates 2 and 3)

T1 sequence (P05412 252-315 S292Y limits assumed): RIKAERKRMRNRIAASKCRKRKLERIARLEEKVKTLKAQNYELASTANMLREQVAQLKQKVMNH

| Molecule | rescue of DHFR expression / change in number of colonies compared to plate 2 (cJun bZIP) | number of bacterial colonies (cJun bZIP; [1]) [colonies] | number of bacterial colonies (cJun bZIP; control plate 1: co-expressed with TRE mDHFR and cJun LZ (no basic DNA-binding region)) [colonies] | AP-1 driven luciferase activity (AP-1) |
| --- | --- | --- | --- | --- |
| cFos LZ: the leucine zipper part of cFos; binds the coiled-coil region of cJun (MASTDTLQAETDQLEDEKYALQTEIANLLKEKEKLGAP) | not able to rescue expression of the DHFR protein | < 20 | > 300 |  |
| B1 | substantial increase in the number of colonies | > 200 |  | dramatic reduction in the signal |
